Data taken from patent US20110008312A1.

Molecular target: fibrillin-1 (human) (UniProt P35555)
Test: cell-based or functional assay

UniProt P35555, sequence (P35555 45-2731 limits assumed): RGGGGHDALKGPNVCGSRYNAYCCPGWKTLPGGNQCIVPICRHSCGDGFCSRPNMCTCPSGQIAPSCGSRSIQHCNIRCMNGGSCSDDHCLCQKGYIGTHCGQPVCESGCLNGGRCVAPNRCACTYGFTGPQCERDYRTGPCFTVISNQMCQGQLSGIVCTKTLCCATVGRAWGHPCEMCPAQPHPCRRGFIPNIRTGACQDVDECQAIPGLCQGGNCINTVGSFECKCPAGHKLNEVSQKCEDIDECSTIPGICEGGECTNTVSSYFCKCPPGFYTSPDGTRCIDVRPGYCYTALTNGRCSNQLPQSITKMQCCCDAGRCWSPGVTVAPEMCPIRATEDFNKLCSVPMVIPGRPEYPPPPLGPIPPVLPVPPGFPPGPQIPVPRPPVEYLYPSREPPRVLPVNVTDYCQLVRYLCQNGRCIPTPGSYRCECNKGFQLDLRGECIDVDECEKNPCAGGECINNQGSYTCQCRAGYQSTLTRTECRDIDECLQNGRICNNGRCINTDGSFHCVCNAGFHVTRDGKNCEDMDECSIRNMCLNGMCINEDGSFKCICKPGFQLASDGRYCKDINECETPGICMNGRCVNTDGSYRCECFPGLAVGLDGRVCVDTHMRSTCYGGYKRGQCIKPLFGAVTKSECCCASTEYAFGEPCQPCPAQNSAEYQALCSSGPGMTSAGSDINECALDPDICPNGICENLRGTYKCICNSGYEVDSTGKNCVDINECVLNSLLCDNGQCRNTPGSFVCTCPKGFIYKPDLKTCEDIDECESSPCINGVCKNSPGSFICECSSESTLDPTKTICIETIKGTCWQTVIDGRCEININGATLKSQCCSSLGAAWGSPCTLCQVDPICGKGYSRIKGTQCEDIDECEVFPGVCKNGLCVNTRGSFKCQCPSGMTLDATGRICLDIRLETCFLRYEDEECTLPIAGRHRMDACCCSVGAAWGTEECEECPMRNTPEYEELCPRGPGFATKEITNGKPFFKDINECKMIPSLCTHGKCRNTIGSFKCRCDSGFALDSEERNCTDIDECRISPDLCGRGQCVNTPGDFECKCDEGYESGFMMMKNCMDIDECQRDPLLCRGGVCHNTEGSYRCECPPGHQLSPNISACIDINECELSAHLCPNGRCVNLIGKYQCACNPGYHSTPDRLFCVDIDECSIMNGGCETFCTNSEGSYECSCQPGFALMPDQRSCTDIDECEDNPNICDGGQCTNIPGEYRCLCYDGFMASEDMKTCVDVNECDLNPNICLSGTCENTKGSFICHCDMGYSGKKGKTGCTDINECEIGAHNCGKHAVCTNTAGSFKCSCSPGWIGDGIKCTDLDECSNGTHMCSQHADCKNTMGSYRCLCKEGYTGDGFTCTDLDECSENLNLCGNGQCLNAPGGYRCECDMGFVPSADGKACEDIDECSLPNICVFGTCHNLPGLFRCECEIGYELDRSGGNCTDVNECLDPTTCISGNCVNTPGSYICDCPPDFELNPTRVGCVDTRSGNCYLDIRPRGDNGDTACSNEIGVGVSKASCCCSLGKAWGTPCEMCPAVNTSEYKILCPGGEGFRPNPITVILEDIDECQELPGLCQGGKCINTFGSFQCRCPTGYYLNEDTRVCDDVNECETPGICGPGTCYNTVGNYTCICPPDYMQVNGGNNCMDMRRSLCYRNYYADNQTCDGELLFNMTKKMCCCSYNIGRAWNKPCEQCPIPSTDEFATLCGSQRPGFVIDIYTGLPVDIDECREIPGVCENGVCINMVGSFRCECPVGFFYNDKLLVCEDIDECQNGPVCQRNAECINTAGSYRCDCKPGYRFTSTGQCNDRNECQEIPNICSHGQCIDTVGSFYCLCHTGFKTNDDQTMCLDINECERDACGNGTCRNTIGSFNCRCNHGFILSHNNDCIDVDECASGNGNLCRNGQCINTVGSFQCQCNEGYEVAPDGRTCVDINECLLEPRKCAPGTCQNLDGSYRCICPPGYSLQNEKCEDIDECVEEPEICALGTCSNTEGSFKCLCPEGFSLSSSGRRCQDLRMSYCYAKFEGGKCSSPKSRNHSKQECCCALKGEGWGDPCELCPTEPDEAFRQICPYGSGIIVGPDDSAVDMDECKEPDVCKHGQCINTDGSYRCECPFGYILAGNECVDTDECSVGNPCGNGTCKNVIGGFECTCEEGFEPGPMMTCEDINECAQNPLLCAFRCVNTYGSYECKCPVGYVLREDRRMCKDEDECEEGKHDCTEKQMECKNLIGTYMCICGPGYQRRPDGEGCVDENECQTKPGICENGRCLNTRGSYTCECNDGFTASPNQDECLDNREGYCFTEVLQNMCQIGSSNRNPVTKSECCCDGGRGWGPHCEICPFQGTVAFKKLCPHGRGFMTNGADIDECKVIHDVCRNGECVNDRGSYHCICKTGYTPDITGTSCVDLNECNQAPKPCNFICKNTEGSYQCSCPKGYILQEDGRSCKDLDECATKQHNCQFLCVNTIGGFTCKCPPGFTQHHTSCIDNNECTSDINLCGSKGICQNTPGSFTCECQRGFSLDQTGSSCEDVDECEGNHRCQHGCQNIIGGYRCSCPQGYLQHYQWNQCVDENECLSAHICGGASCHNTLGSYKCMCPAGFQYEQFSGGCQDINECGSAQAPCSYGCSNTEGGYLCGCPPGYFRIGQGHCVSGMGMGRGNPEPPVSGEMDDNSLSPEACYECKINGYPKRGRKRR
elastin, sequence (P15502 27-786 limits assumed): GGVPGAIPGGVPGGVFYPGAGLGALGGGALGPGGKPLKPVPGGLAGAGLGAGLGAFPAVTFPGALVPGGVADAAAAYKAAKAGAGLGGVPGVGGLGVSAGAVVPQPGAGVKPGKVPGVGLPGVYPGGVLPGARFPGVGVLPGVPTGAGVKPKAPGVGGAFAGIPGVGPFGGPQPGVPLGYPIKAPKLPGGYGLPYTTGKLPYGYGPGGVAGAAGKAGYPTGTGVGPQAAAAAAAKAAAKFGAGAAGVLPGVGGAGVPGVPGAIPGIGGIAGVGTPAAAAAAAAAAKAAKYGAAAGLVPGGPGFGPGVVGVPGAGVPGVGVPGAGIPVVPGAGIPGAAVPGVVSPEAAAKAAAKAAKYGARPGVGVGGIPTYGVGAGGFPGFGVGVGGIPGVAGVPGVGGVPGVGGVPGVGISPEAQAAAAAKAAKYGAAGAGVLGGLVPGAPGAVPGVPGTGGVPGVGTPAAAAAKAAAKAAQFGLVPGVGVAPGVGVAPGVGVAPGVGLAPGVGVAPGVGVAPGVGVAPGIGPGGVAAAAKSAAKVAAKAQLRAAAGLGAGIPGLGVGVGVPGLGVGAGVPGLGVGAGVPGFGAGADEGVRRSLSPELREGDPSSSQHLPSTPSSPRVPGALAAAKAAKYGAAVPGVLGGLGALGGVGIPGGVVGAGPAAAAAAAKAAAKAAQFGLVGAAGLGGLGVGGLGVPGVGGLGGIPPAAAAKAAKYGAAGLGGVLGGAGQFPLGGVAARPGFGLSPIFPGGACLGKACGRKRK

elastin (from UniProt P15502 27-786) was tested, and the amount of elastin deposition to the extracellular matrix (% vs CS-free), keloid cells, CS-A added was 87%, the amount of elastin deposition to the extracellular matrix (% vs CS-free), keloid cells, CS-A and CS-B added was 66.3% and the amount of elastin deposition to the extracellular matrix (% vs CS-free), keloid cells, CS-A and CS-C added was 67.4%. For the same substance, the amount of elastin deposition to the extracellular matrix (% vs CS-free), keloid cells, CS-A, CS-B and CS-C added was 37.6%, the amount of elastin deposition to the extracellular matrix (% vs CS-free), keloid cells, CS-B added was 95.9% and the amount of elastin deposition to the extracellular matrix (% vs CS-free), keloid cells, CS-B and CS-C added was 91%. For the same substance, the amount of elastin deposition to the extracellular matrix (% vs CS-free), keloid cells, CS-C added was 86.7% and the amount of elastin deposition to the extracellular matrix (% vs CS-free), keloid cells, CS-free was 100%.
